According to the supplement of paper PMC9112550, “Optimization of the antimicrobial peptide Bac7 by deep mutational scanning” (BMC Biology, 2022):

Each sequence was assayed on Escherichia coli TOP10 (assay: shrunken log2 fold change of peptide-encoding DNA abundance (4.5 h post-induction vs induction); higher = less antimicrobial activity (less host growth inhibition)). Conditions: time post-induction: 4.5 h; library: site-saturation at positions 5, 18, 19, 20.
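Also: peptides expressed intracellularly from a pBAD plasmid library in pooled LB shake-flask culture, induced with 0.3% L-arabinose, DNA abundance read by NGS, three biological replicates, DESeq2 with apeglm shrinkage.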

| Sequence | shrunken log2 fold change |
| --- | --- |
| RRIRVRPPRLPRPRPRPQKIPRP | 0.0538 |
| RRIRVRPPRLPRPRPRPQKMPRP | -0.234 |
| RRIRVRPPRLPRPRPRPQKTPRP | 0.0603 |
| RRIRVRPPRLPRPRPRPQNMPRP | -0.465 |
| RRIRVRPPRLPRPRPRPQNVPRP | -0.51 |
| RRIRVRPPRLPRPRPRPQPEPRP | 0.23 |
| RRIRVRPPRLPRPRPRPQSAPRP | -0.054 |
| RRIRVRPPRLPRPRPRPQSTPRP | 0.00487 |
| RRIRVRPPRLPRPRPRPQVWPRP | 0.345 |
| RRIRVRPPRLPRPRPRPQVYPRP | -0.0131 |
| RRIRVRPPRLPRPRPRPQWDPRP | -0.0347 |
| RRIRVRPPRLPRPRPRPQWPPRP | 0.336 |
| RRIRVRPPRLPRPRPRPQYVPRP | -0.262 |
| RRIRVRPPRLPRPRPRPRAEPRP | 0.677 |
| RRIRVRPPRLPRPRPRPRANPRP | 0.384 |
| RRIRVRPPRLPRPRPRPRASPRP | 0.281 |
| RRIRVRPPRLPRPRPRPRATPRP | 0.114 |
| RRIRVRPPRLPRPRPRPRAVPRP | 0.314 |
| RRIRVRPPRLPRPRPRPRAYPRP | -0.224 |
| RRIRVRPPRLPRPRPRPRCYPRP | -0.31 |
| RRIRVRPPRLPRPRPRPRGPPRP | 0.946 |
| RRIRVRPPRLPRPRPRPRGYPRP | -0.068 |
| RRIRVRPPRLPRPRPRPRHNPRP | -0.389 |
| RRIRVRPPRLPRPRPRPRKPPRP | 0.0947 |
| RRIRVRPPRLPRPRPRPRLQPRP | -0.000502 |

| Sequence | shrunken log2 fold change |
| --- | --- |
| RRIRVRPPRLPRPRPRPRMVPRP | -0.0168 |
| RRIRVRPPRLPRPRPRPRNQPRP | 0.0453 |
| RRIRVRPPRLPRPRPRPRNRPRP | -0.338 |
| RRIRVRPPRLPRPRPRPRQLPRP | 0.276 |
| RRIRVRPPRLPRPRPRPRRRPRP | 0.271 |
| RRIRVRPPRLPRPRPRPRSKPRP | -0.108 |
| RRIRVRPPRLPRPRPRPRTAPRP | 0.287 |
| RRIRVRPPRLPRPRPRPRTGPRP | -0.0024 |
| RRIRVRPPRLPRPRPRPRTYPRP | -0.309 |
| RRIRVRPPRLPRPRPRPRVKPRP | -0.221 |
| RRIRVRPPRLPRPRPRPRVYPRP | -0.587 |
| RRIRVRPPRLPRPRPRPRYHPRP | -0.36 |
| RRIRVRPPRLPRPRPRPSCHPRP | 0.292 |
| RRIRVRPPRLPRPRPRPSCQPRP | -0.643 |
| RRIRVRPPRLPRPRPRPSCYPRP | -0.568 |
| RRIRVRPPRLPRPRPRPSENPRP | 0.0175 |
| RRIRVRPPRLPRPRPRPSERPRP | -0.0442 |
| RRIRVRPPRLPRPRPRPSFIPRP | -0.749 |
| RRIRVRPPRLPRPRPRPSFLPRP | -0.666 |
| RRIRVRPPRLPRPRPRPSFWPRP | -0.0205 |
| RRIRVRPPRLPRPRPRPSGHPRP | -0.185 |
| RRIRVRPPRLPRPRPRPSGWPRP | 0.16 |
| RRIRVRPPRLPRPRPRPSHIPRP | -0.706 |
| RRIRVRPPRLPRPRPRPSICPRP | -0.208 |
| RRIRVRPPRLPRPRPRPSKIPRP | -0.0852 |

| Sequence | shrunken log2 fold change |
| --- | --- |
| RRIRVRPPRLPRPRPRPSLSPRP | -0.303 |
| RRIRVRPPRLPRPRPRPSLTPRP | -0.231 |
| RRIRVRPPRLPRPRPRPSNMPRP | -0.124 |
| RRIRVRPPRLPRPRPRPSNPPRP | -0.454 |
| RRIRVRPPRLPRPRPRPSNVPRP | -0.139 |
| RRIRVRPPRLPRPRPRPSNWPRP | -0.331 |
| RRIRVRPPRLPRPRPRPSNYPRP | -0.342 |
| RRIRVRPPRLPRPRPRPSQNPRP | -0.242 |
| RRIRVRPPRLPRPRPRPSQQPRP | -0.116 |
| RRIRVRPPRLPRPRPRPSRNPRP | -0.0696 |
| RRIRVRPPRLPRPRPRPSRRPRP | 0.157 |
| RRIRVRPPRLPRPRPRPSRVPRP | 0.0356 |
| RRIRVRPPRLPRPRPRPSSEPRP | -0.327 |
| RRIRVRPPRLPRPRPRPSSFPRP | -0.423 |
| RRIRVRPPRLPRPRPRPSSSPRP | -0.113 |
| RRIRVRPPRLPRPRPRPSSYPRP | -0.139 |
| RRIRVRPPRLPRPRPRPSTLPRP | -0.166 |
| RRIRVRPPRLPRPRPRPSVLPRP | 0.226 |
| RRIRVRPPRLPRPRPRPSWVPRP | -0.32 |
| RRIRVRPPRLPRPRPRPSYCPRP | -0.18 |
| RRIRVRPPRLPRPRPRPSYNPRP | -0.485 |
| RRIRVRPPRLPRPRPRPTAHPRP | 0.246 |
| RRIRVRPPRLPRPRPRPTCMPRP | -0.125 |
| RRIRVRPPRLPRPRPRPTDDPRP | -0.183 |
| RRIRVRPPRLPRPRPRPTDEPRP | -0.148 |
